The text below walks through data of article PMC2697320, “Identification of the high affinity binding site in the Streptococcus intermedius toxin intermedilysin for its membrane receptor, the human complement regulator CD59” (Molecular Immunology, 2009).

This experiment has as its target Human CD59 on human erythrocytes (human (endogenous in human erythrocytes)) (UniProt P13987).

Chain of Human CD59 on human erythrocytes (human (endogenous in human erythrocytes)) (P13987 26-102): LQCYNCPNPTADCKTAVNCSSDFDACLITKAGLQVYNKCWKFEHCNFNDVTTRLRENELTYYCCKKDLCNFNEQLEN

As to ILY LI > TV mutant (natural protein), the fold increase of the dose required for 50% hemolysis of human erythrocytes against native ILY was 2.5 fold.
